Legend:
Assay in all cases: holdup assay
Design in all cases: key: below the threshold = too weak to quantify, mostly under pKd 3.1 to 4
[1] = target: TJP1_2, Q07157
[2] = target: T1, NHERF3_3, Q5T2W1
T1 sequence (Q5T2W1 238-333, limits assumed, looked up): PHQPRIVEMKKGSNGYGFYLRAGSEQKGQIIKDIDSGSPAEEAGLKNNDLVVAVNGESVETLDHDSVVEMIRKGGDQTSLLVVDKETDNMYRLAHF

[3] = target: T2, SNTA1, Q13424
T2 sequence (Q13424 82-180, limits assumed, looked up): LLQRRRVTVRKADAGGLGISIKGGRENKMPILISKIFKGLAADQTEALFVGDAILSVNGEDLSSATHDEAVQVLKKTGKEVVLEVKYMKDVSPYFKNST

[4] = target: GORASP1, Q9BQQ3
GORASP1, Q9BQQ3, sequence (Q9BQQ3 1-208): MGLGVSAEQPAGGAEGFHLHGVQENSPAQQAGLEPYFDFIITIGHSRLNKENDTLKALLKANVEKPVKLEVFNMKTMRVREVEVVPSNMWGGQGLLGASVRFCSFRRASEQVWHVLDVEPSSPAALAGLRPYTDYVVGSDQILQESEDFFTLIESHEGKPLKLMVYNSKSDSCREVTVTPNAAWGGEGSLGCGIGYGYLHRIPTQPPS

[5] = target: GRIP2_3, Q9C0E4
GRIP2_3, Q9C0E4, sequence (Q9C0E4 238-339): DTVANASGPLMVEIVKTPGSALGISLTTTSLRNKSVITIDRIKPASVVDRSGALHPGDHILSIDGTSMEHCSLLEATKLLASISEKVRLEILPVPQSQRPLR

[6] = target: T3, SIPA1L2, Q9P2F8
T3 sequence (Q9P2F8 945-1036, limits assumed, looked up): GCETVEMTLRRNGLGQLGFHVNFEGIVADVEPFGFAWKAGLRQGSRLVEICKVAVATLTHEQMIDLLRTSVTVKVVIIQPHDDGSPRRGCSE

[7] = target: T4, TJP3_3, O95049
T4 sequence (O95049 375-456, limits assumed, looked up): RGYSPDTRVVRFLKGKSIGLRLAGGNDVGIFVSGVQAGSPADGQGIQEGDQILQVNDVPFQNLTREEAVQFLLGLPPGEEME

[8] = target: T5, PDZD7_3, Q9H5P4
T5 sequence (Q9H5P4 857-944, limits assumed, looked up): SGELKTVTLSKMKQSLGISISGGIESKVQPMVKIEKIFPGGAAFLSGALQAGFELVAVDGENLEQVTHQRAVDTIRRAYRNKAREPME

[9] = target: T6, PARD3B_1, Q8TEW8
T6 sequence (Q8TEW8 196-299, limits assumed, looked up): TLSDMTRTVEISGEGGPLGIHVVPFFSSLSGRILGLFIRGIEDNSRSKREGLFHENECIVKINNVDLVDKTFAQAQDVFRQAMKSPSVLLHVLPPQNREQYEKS

[10] = target: T7, APBA3_1, O96018
T7 sequence (O96018 389-490, limits assumed, looked up): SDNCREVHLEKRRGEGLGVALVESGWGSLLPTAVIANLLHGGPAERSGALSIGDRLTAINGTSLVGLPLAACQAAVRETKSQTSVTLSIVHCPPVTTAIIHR

[11] = target: T8, HTRA3, P83110
T8 sequence (P83110 354-453, limits assumed, looked up): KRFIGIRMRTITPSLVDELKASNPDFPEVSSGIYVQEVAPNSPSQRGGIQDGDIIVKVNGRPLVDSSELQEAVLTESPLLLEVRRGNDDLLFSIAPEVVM

[12] = target: TJP2_1, Q9UDY2
TJP2_1, Q9UDY2, sequence (Q9UDY2 24-128): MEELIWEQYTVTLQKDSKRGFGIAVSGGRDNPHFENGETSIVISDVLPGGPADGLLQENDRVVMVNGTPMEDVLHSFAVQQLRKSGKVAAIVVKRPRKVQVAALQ

[13] = target: SCRIB_3, Q14160
SCRIB_3, Q14160, sequence (Q14160 999-1103): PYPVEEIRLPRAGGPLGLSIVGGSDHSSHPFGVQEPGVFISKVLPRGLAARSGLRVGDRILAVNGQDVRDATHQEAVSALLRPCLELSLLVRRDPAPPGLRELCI

[14] = target: DLG2_2, Q15700
DLG2_2, Q15700, sequence (Q15700 189-283): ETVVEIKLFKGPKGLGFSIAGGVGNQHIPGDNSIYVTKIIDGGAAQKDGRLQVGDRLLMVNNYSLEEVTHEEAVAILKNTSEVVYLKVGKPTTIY

[15] = target: PARD3_3, Q8TEW0
PARD3_3, Q8TEW0, sequence (Q8TEW0 582-685): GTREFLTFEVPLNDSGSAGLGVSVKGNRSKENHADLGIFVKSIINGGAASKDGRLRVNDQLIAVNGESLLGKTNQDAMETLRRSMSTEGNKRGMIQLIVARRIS

[16] = target: NHERF4_2, Q86UT5
NHERF4_2, Q86UT5, sequence (Q86UT5 220-308): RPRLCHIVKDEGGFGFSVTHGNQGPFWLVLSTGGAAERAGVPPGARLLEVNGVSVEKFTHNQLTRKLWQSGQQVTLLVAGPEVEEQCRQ

[17] = target: T9, SNTG1, Q9NSN8
T9 sequence (Q9NSN8 52-150, limits assumed, looked up): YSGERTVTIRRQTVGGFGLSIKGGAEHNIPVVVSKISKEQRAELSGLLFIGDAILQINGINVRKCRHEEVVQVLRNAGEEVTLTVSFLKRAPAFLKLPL

[18] = target: T10, DVL3, Q92997
T10 sequence (Q92997 244-331, limits assumed, looked up): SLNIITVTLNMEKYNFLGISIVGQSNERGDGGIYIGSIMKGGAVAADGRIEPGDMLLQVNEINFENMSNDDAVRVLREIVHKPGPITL

[19] = target: T11, APBA2_1, Q99767
T11 sequence (Q99767 563-664, limits assumed, looked up): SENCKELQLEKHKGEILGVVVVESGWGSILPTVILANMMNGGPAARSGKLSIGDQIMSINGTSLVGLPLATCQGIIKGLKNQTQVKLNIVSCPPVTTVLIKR

[20] = target: SCRIB_1, Q14160
SCRIB_1, Q14160, sequence (Q14160 718-814): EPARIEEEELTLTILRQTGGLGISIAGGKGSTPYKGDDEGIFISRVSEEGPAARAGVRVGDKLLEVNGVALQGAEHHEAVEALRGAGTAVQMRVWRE

[21] = target: T12, DFNB31_2, Q9P202
T12 sequence (Q9P202 274-371, limits assumed, looked up): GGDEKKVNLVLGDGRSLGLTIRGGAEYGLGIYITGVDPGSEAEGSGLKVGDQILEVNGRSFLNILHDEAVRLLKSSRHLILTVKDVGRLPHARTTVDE

[22] = target: MAGI1_2, Q96QZ7
MAGI1_2, Q96QZ7, sequence (Q96QZ7 456-580): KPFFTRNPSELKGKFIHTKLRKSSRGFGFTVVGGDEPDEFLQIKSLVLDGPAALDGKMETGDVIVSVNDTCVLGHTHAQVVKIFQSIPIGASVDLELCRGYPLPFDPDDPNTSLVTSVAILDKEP

[23] = target: LIMK2, P53671
LIMK2, P53671, sequence (P53671 143-248): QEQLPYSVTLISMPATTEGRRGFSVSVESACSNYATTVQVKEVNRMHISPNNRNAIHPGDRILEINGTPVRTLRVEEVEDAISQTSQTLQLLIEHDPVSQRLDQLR

[24] = target: ARHGEF12, Q9NZN5-2
ARHGEF12, Q9NZN5-2, sequence (Q9NZN5 other isoform, or with tags, fused parts or gaps): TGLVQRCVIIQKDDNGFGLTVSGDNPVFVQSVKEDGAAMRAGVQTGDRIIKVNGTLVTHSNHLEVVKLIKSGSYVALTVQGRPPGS

[25] = target: CASK, O14936
CASK, O14936, sequence (O14936 487-570): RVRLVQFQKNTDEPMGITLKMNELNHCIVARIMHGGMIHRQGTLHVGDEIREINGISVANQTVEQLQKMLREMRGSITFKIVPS

[26] = target: GRIP2_7, Q9C0E4
GRIP2_7, Q9C0E4, sequence (Q9C0E4 934-1023): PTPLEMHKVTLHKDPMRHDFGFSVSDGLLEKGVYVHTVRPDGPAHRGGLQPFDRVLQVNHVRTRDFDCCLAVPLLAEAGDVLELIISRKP

[27] = plain residues with an end cap or a label only (N-terminal biotin on a linker: ado-ado)
[28] = modified: phospho on T at position -2 from the C-terminal residue

TJP1_2, Q07157, sequence (Q07157 181-274): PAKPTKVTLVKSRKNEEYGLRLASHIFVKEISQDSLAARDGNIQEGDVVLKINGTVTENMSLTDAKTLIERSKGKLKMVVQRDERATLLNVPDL

Binder: LRSPRTPSEV [OR10G3, Q8NGC4]
- pKd [1, 27]: 3.62
- pKd [2, 27]: 3.54
- pKd [3, 27]: 3.52
- pKd [4, 27]: below the threshold
- pKd [5, 27]: below the threshold
- pKd [6, 27]: below the threshold
- pKd [7, 27]: below the threshold
- pKd [8, 27]: below the threshold
- pKd [9, 27]: below the threshold
- pKd [10, 27]: below the threshold
- pKd [11, 27]: below the threshold
- pKd [12, 27]: below the threshold
- pKd [13, 27]: 3.61
- pKd [14, 27]: 3.55
- pKd [15, 27]: below the threshold
- pKd [16, 27]: below the threshold
- pKd [17, 27]: below the threshold
- pKd [18, 27]: below the threshold
- pKd [19, 27]: below the threshold
- pKd [20, 27]: below the threshold
- pKd [21, 27]: below the threshold
- pKd [22, 27]: 3.92
- pKd [23, 27]: below the threshold
- pKd [24, 27]: 3.65
- pKd [25, 27]: 3.61
- pKd [26, 27]: below the threshold

Binder: RRRESYSTTV [EVI5, O60447]
- pKd [1, 27]: below the threshold
- pKd [2, 27]: below the threshold
- pKd [3, 27]: 4.41
- pKd [4, 27]: 4.7
- pKd [5, 27]: below the threshold
- pKd [6, 27]: 3.47
- pKd [7, 27]: below the threshold
- pKd [8, 27]: 4.61
- pKd [9, 27]: below the threshold
- pKd [10, 27]: below the threshold
- pKd [11, 27]: 3.66
- pKd [12, 27]: 4.84
- pKd [13, 27]: 4.48
- pKd [14, 27]: 5.54
- pKd [15, 27]: below the threshold
- pKd [16, 27]: below the threshold
- pKd [17, 27]: 3.63
- pKd [18, 27]: below the threshold
- pKd [19, 27]: below the threshold
- pKd [20, 27]: 4.57
- pKd [21, 27]: below the threshold
- pKd [22, 27]: 4.78
- pKd [23, 27]: below the threshold
- pKd [24, 27]: 4.74
- pKd [25, 27]: below the threshold
- pKd [26, 27]: below the threshold

Binder: SKPTRRETEV [HPV35-E6_-2P, P27228]
- pKd [1, 28]: below the threshold
- pKd [2, 28]: below the threshold
- pKd [3, 28]: below the threshold
- pKd [4, 28]: below the threshold
- pKd [5, 28]: below the threshold
- pKd [6, 28]: below the threshold
- pKd [7, 28]: below the threshold
- pKd [8, 28]: 3.61
- pKd [9, 28]: below the threshold
- pKd [10, 28]: below the threshold
- pKd [11, 28]: below the threshold
- pKd [12, 28]: below the threshold
- pKd [13, 28]: below the threshold
- pKd [14, 28]: 3.51
- pKd [15, 28]: below the threshold
- pKd [16, 28]: below the threshold
- pKd [17, 28]: below the threshold
- pKd [18, 28]: below the threshold
- pKd [19, 28]: below the threshold
- pKd [20, 28]: below the threshold
- pKd [21, 28]: below the threshold
- pKd [22, 28]: below the threshold
- pKd [23, 28]: below the threshold
- pKd [24, 28]: below the threshold
- pKd [25, 28]: below the threshold
- pKd [26, 28]: below the threshold

Binder: RRLPGKETMA [GRIK2, Q13002]
- pKd [1, 27]: below the threshold
- pKd [2, 27]: below the threshold
- pKd [3, 27]: below the threshold
- pKd [4, 27]: below the threshold
- pKd [5, 27]: below the threshold
- pKd [6, 27]: below the threshold
- pKd [7, 27]: below the threshold
- pKd [8, 27]: below the threshold
- pKd [9, 27]: below the threshold
- pKd [10, 27]: below the threshold
- pKd [11, 27]: below the threshold
- pKd [12, 27]: below the threshold
- pKd [13, 27]: below the threshold
- pKd [14, 27]: below the threshold
- pKd [15, 27]: below the threshold
- pKd [16, 27]: below the threshold
- pKd [17, 27]: below the threshold
- pKd [18, 27]: below the threshold
- pKd [19, 27]: below the threshold
- pKd [20, 27]: below the threshold
- pKd [21, 27]: below the threshold
- pKd [22, 27]: below the threshold
- pKd [23, 27]: below the threshold
- pKd [24, 27]: below the threshold
- pKd [25, 27]: below the threshold
- pKd [26, 27]: below the threshold

Reference: PMC9482650, “Quantitative fragmentomics allow affinity mapping of interactomes” (Nature Communications, 2022)
